Results taken from patent US20250290928A1, “METHOD, KIT AND DEVICE FOR DETECTING EXTRACELLULAR VESICLES” (priority 2022, published 2025).
*: point of attachment. 5FAM = O=C1OC2(c3ccc(O)cc3Oc3cc(O)ccc32)c2ccc(C(=O)*)cc21; TQ2 = quencher

Key:
[1] = target: T1, MMP14 in the MDA-MB-231-derived extracellular vesicles (Homo sapiens, UniProt P50281); test: Digital detection of MDA-MB-231-derived extracellular vesicles through MMP14 activity in wells (microcompartments); format: biochemical
T1 construct: in terms of intact MMP14 with a molecular weight of 70 kDa
In short: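 MDA-MB-231 extracellular-vesicle samples were mixed 1:1 with MMP14 detection solution. The reaction mix was sealed under fluorinated oil in 50 fL microwells (239,000-well array), giving digital single-well readout of MMP14 activity. Standard samples were prepared by serial dilution, and bulk MMP14 activity was also measured in 96-well format.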

[2] = target: T1, MMP14 in the MDA-MB-231-derived extracellular vesicles; test: Evaluation of MMP14 activity of MDA-MB-231-derived extracellular vesicles with 96-well plate; format: biochemical; details: for reaction rate per 1 μg/mL of extracellular vesicles: within 1 hour
In short: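 MMP14 activity in extracellular vesicles was measured by adding detection solution to samples and reading fluorescence kinetically every 5 min. Conditions were 37° C. for 1 h (ex 485/em 528 nm) or 2 h (ex 325/em 392 nm), or 30° C. for 2 h (ex 545/em 588 nm). Background was subtracted to give ΔRFU.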

[3] = Example 20, 37° C., 5 h, BG, EV 0 (free of extracellular vesicles, pseudopositive)
[4] = Example 20, 37° C., 5 h, ΔBG Absent, EV 0.0001 a.u.
[5] = Example 20, 37° C., 5 h, ΔBG Absent, EV 0.001 a.u.
[6] = Example 20, 37° C., 5 h, ΔBG Absent, EV 0.01 a.u.
[7] = Example 20, 37° C., 5 h, ΔBG Absent, EV 0.1 a.u.
[8] = Example 20, 37° C., 5 h, ΔBG Absent, EV 1 a.u. (x1=10 μg/mL)
[9] = Example 20, 37° C., 5 h, ΔBG Present (positives at EV 0 subtracted), EV 1 a.u.
[10] = Example 20, 37° C., 5 h, ΔBG Present, EV 0.001 a.u.
[11] = Example 20, 37° C., 5 h, ΔBG Present, EV 0.01 a.u.
[12] = Example 20, 37° C., 5 h, ΔBG Present, EV 0.1 a.u.
[13] = Example 22, buffer (2), 37° C., 1 h, EV 0 (free of extracellular vesicles)
[14] = Example 22, buffer (2), 37° C., 1 h, EV 0.111 a.u.
[15] = Example 22, buffer (2), 37° C., 1 h, EV 0.333 a.u.
[16] = Example 22, buffer (2), 37° C., 1 h, EV 1 a.u. (x1=10 μg/mL)
[17] = Example 22, buffer (2), 37° C., 2 h, EV 0 (free of extracellular vesicles)
[18] = Example 22, buffer (2), 37° C., 2 h, EV 0.111 a.u.
[19] = Example 22, buffer (2), 37° C., 2 h, EV 0.333 a.u.
[20] = Example 22, buffer (2), 37° C., 2 h, EV 1 a.u. (x1=10 μg/mL)
[21] = Example 9, EV 4 μg/mL, buffer (3), 37° C., Lineweaver-Burk plots

Substance: [5-FAM]GRIGFLRTAK(TQ2)[OH] (5FAM-GRIGFLRTAK(TQ2)-OH) [Custom #1]
- Expected value λ [1, 3]: 0.000553
- Number of positives [1, 3]: 32
- Positive ratio [1, 3]: 0.000553
- Expected value λ [1, 4]: 0.000535
- Number of positives [1, 4]: 31
- Positive ratio [1, 4]: 0.000534
- Expected value λ [1, 5]: 0.00285
- Number of positives [1, 5]: 165
- Positive ratio [1, 5]: 0.00285
- Expected value λ [1, 6]: 0.0115
- Number of positives [1, 6]: 661
- Positive ratio [1, 6]: 0.0114
- Expected value λ [1, 7]: 0.137
- Number of positives [1, 7]: 7,404
- Positive ratio [1, 7]: 0.128
- Expected value λ [1, 8]: 1.16
- Number of positives [1, 8]: 39,601
- Positive ratio [1, 8]: 0.686
- Expected value λ [1, 9]: 1.16
- Number of positives [1, 9]: 39,569
- Positive ratio [1, 9]: 0.685
- Number of positives ([1]; Example 20, 37° C., 5 h, ΔBG Present, EV 0.0001 a.u.): −1
- Expected value λ [1, 10]: 0.0023
- Number of positives [1, 10]: 133
- Positive ratio [1, 10]: 0.0023
- Expected value λ [1, 11]: 0.0109
- Number of positives [1, 11]: 629
- Positive ratio [1, 11]: 0.0109
- Expected value λ [1, 12]: 0.136
- Number of positives [1, 12]: 7,372
- Positive ratio [1, 12]: 0.128
- λ at x1 in an approximation with BG correction ([1]; Example 20, 5 h): 1.07
- λ at x1 in an approximation without BG correction ([1]; Example 20, 5 h): 1.03
- Extracellular vesicle concentration ([1]; Example 20, with BG correction): 2.1e+10 mL⁻¹
- extracellular vesicles in which MMP14 activity can be detected, contained in 1 μL of the extracellular vesicles (50 μg of protein in 50 μL of PBS) ([1]; Example 20, with BG correction): 2.1×10^9
- Extracellular vesicle concentration ([1]; Example 20, without BG correction): 2.1×10^9 /μg of protein
- Extracellular vesicle concentration ([1]; Example 20, without BG correction, reaction solution 10 μg of protein/mL, 50 fL): 2.1e+10 mL⁻¹
- expected value λ at x1 (power approximation) ([1]; Example 22, after 1 hour): 0.661
- expected value λ at x1 (power approximation) ([1]; Example 22, after 2 hours): 0.7145
- Expected value λ [1, 13]: 0.000725
- Number of positives [1, 13]: 21
- Positive ratio [1, 13]: 0.000725
- Expected value λ [1, 14]: 0.0784
- Number of positives [1, 14]: 2,186
- Positive ratio [1, 14]: 0.0754
- Expected value λ [1, 15]: 0.237
- Number of positives [1, 15]: 6,117
- Positive ratio [1, 15]: 0.211
- Expected value λ [1, 16]: 0.65
- Number of positives [1, 16]: 13,855
- Positive ratio [1, 16]: 0.478
- Expected value λ [1, 17]: 0.000794
- Number of positives [1, 17]: 23
- Positive ratio [1, 17]: 0.000794
- Expected value λ [1, 18]: 0.0822
- Number of positives [1, 18]: 2,287
- Positive ratio [1, 18]: 0.0789
- Expected value λ [1, 19]: 0.238
- Number of positives [1, 19]: 6,143
- Positive ratio [1, 19]: 0.212
- Expected value λ [1, 20]: 0.719
- Number of positives [1, 20]: 14,860
- Positive ratio [1, 20]: 0.513
- extracellular vesicle concentration at which MMP14 activity was able to be detected in the microcompartments ([1]; Simoa Discs, buffer (4), reporter 5 μM, 37° C.): ≥ 10 ng/mL
- increase in fluorescence intensity (temporal change) ([2]; Example 4, EV 5 μg/mL, reporter 5 μM, 37° C., Assay buffer (Component D)): more significant than that from SensoLyte 520 MMP-14
- reaction rate per 1 μg/mL of extracellular vesicles ([2]; Example 5, Assay buffer (Component D) of SensoLyte 520 MMP-14 Assay Kit, reporter 5 μM, 37° C.): 101.5 ΔRFU/min
- reaction rate per 1 μg/mL of extracellular vesicles ([2]; Example 8, buffer (2), reporter 5 μM, 37° C.): 198 ΔRFU/min
- Km [2, 21]: 0.443 µM
- Vmax [2, 21]: 1,278.77 ΔRFU/min
- cleaved more easily than Custom #2 ([2]; Example 9 reaction conditions): about 2.5 times
- fluorescence intensity at the same extracellular vesicle concentration ([2]; Example 10, buffer (3), reporter 5 μM, 37° C.): higher than the fluorescence intensity from Custom #2
- extracellular vesicle concentration at which MMP14 activity was able to be detected with a 96-well plate ([2]; buffer (4), reporter 5 μM, 37° C.): ≥ 1 µg/mL
